Measurements published in patent publication US20150080554A1.

Experiments:
[1] = biological target: polyclonal human IgG (Gammanorm, Octapharma) (human); assay: gradient elution pH 6 to pH 3, 0.1 M citrate, from ligand-coupled agarose column
[2] = biological target: polyclonal human IgG (Gammanorm, Octapharma) (human); assay: breakthrough on ligand-coupled agarose column; 1 mg/ml IgG in 20 mM PBS + 0.15 M NaCl pH 7.4; residence time 2.4 min; ligand density 6.7 mg/ml
[3] = biological target: polyclonal human IgG (Gammanorm, Octapharma) (human); assay: breakthrough on ligand-coupled agarose column; 1 mg/ml IgG in 20 mM PBS + 0.15 M NaCl pH 7.4; residence time 6 min; ligand density 6.7 mg/ml
[4] = biological target: polyclonal human IgG (Gammanorm, Octapharma) (human); assay: breakthrough on ligand-coupled agarose column; 1 mg/ml IgG in 20 mM PBS + 0.15 M NaCl pH 7.4; residence time 2.4 min; ligand density 6.9 mg/ml
[5] = biological target: polyclonal human IgG (Gammanorm, Octapharma) (human); assay: breakthrough on ligand-coupled agarose column; 1 mg/ml IgG in 20 mM PBS + 0.15 M NaCl pH 7.4; residence time 6 min; ligand density 6.9 mg/ml
[6] = biological target: mAb (Table 2, column 'pH mAb'); assay: gradient elution pH 6 to pH 3, 0.1 M citrate, from ligand-coupled agarose column; about 10 mg cell culture supernatant loaded
[7] = biological target: polyclonal human IgG (Gammanorm, Octapharma) (human); assay: breakthrough on ligand-coupled agarose column; 1 mg/ml IgG in 20 mM PBS + 0.15 M NaCl pH 7.4; residence time 2.4 min; ligand density 5.3 mg/ml
[8] = biological target: polyclonal human IgG (Gammanorm, Octapharma) (human); assay: breakthrough on ligand-coupled agarose column; 1 mg/ml IgG in 20 mM PBS + 0.15 M NaCl pH 7.4; residence time 6 min; ligand density 5.3 mg/ml

In the case of “Comparative prototype Z(H18S)4 (designed binder)”, the elution pH at peak apex, pH hIgG (first peak) [1] is reported as 5.1 pH, the elution pH at peak apex, pH hIgG (second peak) [1] is reported as 4.61 pH and the Qb10% (dynamic binding capacity at 10% breakthrough) [2] is reported as 37 mg/ml resin. For the same substance, the Qb80% (dynamic binding capacity at 80% breakthrough) [2] was 62.2 mg/ml resin, the Qb10% (dynamic binding capacity at 10% breakthrough) [3] was 55 mg/ml resin and the Qb80% (dynamic binding capacity at 80% breakthrough) [3] was 67.5 mg/ml resin.

With Mutant Z(H18S,N28A)4 (designed binder) the Qb10% (dynamic binding capacity at 10% breakthrough) [4] was 35.2 mg/ml resin, the Qb80% (dynamic binding capacity at 80% breakthrough) [4] was 56 mg/ml resin and the elution pH at peak apex, pH hIgG (first peak) [1] was 5.68 pH. The elution pH at peak apex, pH hIgG (second peak) [1] was 5.15 pH, the Qb10% (dynamic binding capacity at 10% breakthrough) [5] was 45.9 mg/ml resin and the Qb80% (dynamic binding capacity at 80% breakthrough) [5] was 59.1 mg/ml resin. The elution pH at peak apex, pH mAb [6] was 5.05 pH.

Mutant Z(H18S,P57I)4 (designed binder) was tested, and the Qb10% (dynamic binding capacity at 10% breakthrough) [7] was 35.6 mg/ml resin, the Qb80% (dynamic binding capacity at 80% breakthrough) [7] was 56 mg/ml resin and the elution pH at peak apex, pH hIgG (first peak) [1] was 5.44 pH. It also gave an elution pH at peak apex, pH hIgG (second peak) [1] of 4.91 pH, a Qb10% (dynamic binding capacity at 10% breakthrough) [8] of 47 mg/ml resin and a Qb80% (dynamic binding capacity at 80% breakthrough) [8] of 58 mg/ml resin. For the same substance, the elution pH at peak apex, pH mAb [6] was 4.71 pH.
